Residue numbers refer to the chain shown, from its start. Values belong to the binder of their own block, whether it stands above or below them.
Experiments:
[1] = target: T1, human TGF-beta 1 (R&D Systems, Cat # 240-B/CF) (human, UniProt P01137 279-390); test: calculated from KinExA Kd and kon
T1 construct: They match K95 and residues 58-61 of mature numbering; also called TGF-β1; mature TGF-β1
Method: (§1) A KinExA 3000 instrument (Sapidyne Inst. Inc.) is used to measure binding kinetics. Briefly, an antigen is covalently coupled to alzactone beads and the binding of a free Fab binding composition of the invention to the beads is detected on the instrument. […] After the incubation, free Fab in each equilibrated sample is determined on the KinExA 3000 according to the manufacturer's instructions. Kd values are determined using KinExA 3000 software.
(§2) To measure kₒₙ, individual Fabs at 2 nM are mixed with 0-240 nM of antigen using the injection method according to the manufacturer's instructions, and the unbound Fab is detected. The resulting data is used to calculate the kₒₙ with KinExA 3000 software. The koff is calculated by using the formula Kd=koff/kₒₙ.

[2] = target: T1, human TGF-beta 1 (R&D Systems, Cat # …); test: KinExA 3000, equilibrium, Fab in solution
Method: as §1

[3] = target: T1, human TGF-beta 1 (R&D Systems, Cat # …); test: KinExA 3000, Fab in solution, antigen on beads
Method: as §1, §2

T1 sequence (P01137 279-390 limits assumed): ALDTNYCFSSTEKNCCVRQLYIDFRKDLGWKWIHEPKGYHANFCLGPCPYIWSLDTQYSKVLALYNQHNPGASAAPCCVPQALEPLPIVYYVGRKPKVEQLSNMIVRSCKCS

B1: Fab DM4 (Fab, V domains shown)
VH: QVQLVQSGAEVKKPGASVKVSCKASGYDFTDYNIHWVRQAPGQGLEWMGYIYPYDGETGYNQKFKSRVTMTTDTSTSTAYMELRSLRSDDTAVYYCARGYRWLAYWGQGTLVTVSS
VL: DIQMTQSPSSLSASVGDRVTITCRASSSVSYMHWYQQKPGKAPKPLIYATSNLAYGVPSRFSGSGSGTDFTLTISSLQPEDFATYYCQQWDLNPPAFGQGTKLEIK
notes: Fab with human constant regions (kappa light chain)
koff [1]: 5.1e-06 s⁻¹
Kd [2]: 1.2 pM
kon [3]: 4.2e+06 M⁻¹ s⁻¹

B2: Fab 21D1 (Fab, V domains shown)
VH: B1 VH with D28T, L103F
VL: B1 VL with S30P, Y35F, P45S, L53P
notes: Fab with human constant regions (kappa light chain) from M13 expression vectors
koff [1]: 3.4e-06 s⁻¹
Kd [2]: 0.9 pM
kon [3]: 4e+06 M⁻¹ s⁻¹

The next lines start with the values.

koff [1]: 1.9e-05 s⁻¹
Kd [2]: 4 pM
kon [3]: 4.8e+06 M⁻¹ s⁻¹
B3: Fab 23A3 (Fab, V domains shown)
VH: B1 VH with I34M, H35V, Y50S, W102A, L103F, A104E
VL: B1 VL with S30P, P45L, L53P
notes: as for B1

koff [1]: 2.3e-06 s⁻¹
Kd [2]: 0.5 pM
kon [3]: 4.5e+06 M⁻¹ s⁻¹
B4: Fab DM7 (Fab, V domains shown)
VH: B1 VH with I34M, A104Y
VL: B1 VL with Y55K
notes: as for B1

Source: patent publication US20080050375A1 (Eli Lilly, published 2008)
